For assay [1], the target named is urokinase-type plasminogen activator (u-PA) (UniProt P00749). The assay is described as follows: ratio of second order rate constants for inhibition.
Assay [2] has as its target tissue plasminogen activator (t-PA) (UniProt P00750). Kind of assay: ratio of the rate constants toward t-PA and toward u-PA.
Assay [3] shares this target. The assay is described as follows: ratio of selectivities from second order rate constants for inhibition.
The target is the same in assay [4]. Kind of assay: inhibition kinetics from residual enzyme activity (chromogenic assay), pseudo-first or second order conditions.
The target of assay [5] is urokinase-type plasminogen activator (u-PA) (UniProt P00749). Described as above.
For assay [6] the target is unchanged. Kind of assay: ratio of the rate constants toward u-PA and toward t-PA.
For assay [7] the target is unchanged. The assay is described as follows: ratio of selectivities from second order rate constants for inhibition.
For assay [8], the target named is tissue plasminogen activator (t-PA) (UniProt P00750). The assay is described as follows: inhibition kinetics from residual enzyme activity (chromogenic assay), pseudo-first or second order conditions. The source holds these as a separate data set.
Sequence of tissue plasminogen activator (t-PA) (P00750 36-562 limits assumed): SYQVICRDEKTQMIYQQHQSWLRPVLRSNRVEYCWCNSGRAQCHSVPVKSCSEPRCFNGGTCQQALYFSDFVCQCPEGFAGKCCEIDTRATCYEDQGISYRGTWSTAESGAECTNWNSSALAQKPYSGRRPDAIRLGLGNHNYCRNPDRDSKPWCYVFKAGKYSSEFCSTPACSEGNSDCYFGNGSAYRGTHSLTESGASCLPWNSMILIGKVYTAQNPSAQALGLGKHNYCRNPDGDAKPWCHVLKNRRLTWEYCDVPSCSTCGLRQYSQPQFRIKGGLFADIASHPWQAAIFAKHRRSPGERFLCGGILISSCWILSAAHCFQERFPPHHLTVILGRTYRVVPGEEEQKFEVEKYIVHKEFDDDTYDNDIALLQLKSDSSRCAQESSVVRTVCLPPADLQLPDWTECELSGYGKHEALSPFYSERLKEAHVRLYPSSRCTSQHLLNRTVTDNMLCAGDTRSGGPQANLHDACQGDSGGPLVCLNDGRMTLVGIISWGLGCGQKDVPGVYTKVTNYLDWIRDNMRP
The target of assay [9] is urokinase-type plasminogen activator (u-PA) (UniProt P00749). Described as above. The source holds these as a separate data set.
The target is the same in assay [10]. The assay is described as follows: ratio of the second order rate constants for inhibition.

Like-named read-outs stand apart in the source and are kept apart here.

In the case of PAI-1/P3R (from UniProt P05121 24-402), in assay [1], the fold reduction of activity against wild type PAI-1 amounted to 190 fold. The t-PA/u-PA Selectivity in [2] amounted to 14. The fold reversal in specificity toward t-PA against wild type PAI-1 in [3] worked out at 170 fold. Also, the second order rate constant for inhibition in [4] was determined as 1.4e+06 M⁻¹ s⁻¹; in assay [5] it was 100000 M⁻¹ s⁻¹.

PAI-1/P4Q (from UniProt P05121 24-402): the t-PA/u-PA Selectivity in assay [2] was found to be 0.08. Besides, the second order rate constant for inhibition in assay [4] amounted to 1.6e+06 M⁻¹ s⁻¹; in assay [5], 1.9e+07 M⁻¹ s⁻¹.

“PAI-1/P4Q,P3R (from UniProt P05121 24-402)”: the t-PA/u-PA Selectivity in [2] is 48. In addition, in assay [3], the fold gain of t-PA selectivity against the P3 arginine variant of PAI-1 was determined as 3.5 fold and the fold gain of t-PA/u-PA selectivity against wild-type PAI-1 is 600 fold. The substance further had a second order rate constant for inhibition in assay [4] of 1.4e+06 M⁻¹ s⁻¹. The same substance returned a second order rate constant for inhibition in assay [5] of 29000 M⁻¹ s⁻¹.

For the substance PAI-1/UK1 (from UniProt P05121 24-402), in assay [6], the t-PA/u-PA Selectivity (as headed; the value is the u-PA/t-PA ratio) worked out at 69. In addition, in [7], the fold gain of u-PA/t-PA selectivity against wild type PAI-1 was determined as 7 fold. Moreover, the results for the second order rate constant for inhibition in assay [8] and in assay [9] were 90000 M⁻¹ s⁻¹ and 6.2e+06 M⁻¹ s⁻¹, respectively.

With “Wild type PAI-1 (recombinant human plasminogen activator inhibitor type 1) (from UniProt P05121 24-402)”, the t-PA/u-PA Selectivity in assay [2] was 0.08. Also, the t-PA/u-PA Selectivity (as headed; the value is the u-PA/t-PA ratio) in [6] is 11. Moreover, the fold specificity toward u-PA over t-PA in assay [10] worked out at 11.9 fold. Also, the second order rate constant for inhibition in assay [4] turned out to be 1.6e+06 M⁻¹ s⁻¹; in assay [8], 1.8e+06 M⁻¹ s⁻¹; in [9] it was 1.9e+07 M⁻¹ s⁻¹.

Values taken from patent EP0959894B1.
